Measured values published in PMC7587441, “Plasmodium falciparum Apicomplexan-Specific Glucosamine-6-Phosphate N-Acetyltransferase Is Key for Amino Sugar Metabolism and Asexual Blood Stage Development” (mBio, 2020).

Substrate: CC(=O)SCCNC(=O)CCNC(=O)[C@H](O)C(C)(C)COP(=O)(O)OP(=O)(O)OC[C@H]1O[C@@H](n2cnc3c(N)ncnc32)[C@H](O)[C@@H]1OP(=O)(O)O
Experiment: DTNB colorimetric assay of CoA release
Format: biochemical, Cryptosporidium parvum
Details: 2000 μM GlcN6P fixed, 25 mM Tris-HCl, 150 mM NaCl, pH 7.2, room temperature
From the text: DTNB colorimetric assay of CoA release on CpGNA1

B1: CpGNA1 (Cryptosporidium parvum Iowa II) (protein)
chain: MISSFEVRKATIDDYFELRNLICDVTRCTETLSREQAEERFRYNTYHPYCLVDTENGRIVGYAGFYIIPHLGRKNDSRIEHVIISKEYRNRGLGRLLCKQIIEDAKNKFNCGRIDLTVESHIAKKLYSSLEFEKVNTEVMRNSFLDLTPKSD
notes: N-terminal GST tag kept (not cleaved), pGEX-6P-1, codon-optimized
Km: 531 ± 80.33 µM
